Here are results for 97 variants from the supplement of paper PMC10567573.

The labels stand for the following.
B1: NP_009172.2 (parent)
chain: LPALFTDLYSQEITAEEAREALP
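Further: lentivirally expressed fusion library, cells FACS-sorted into six equal-sized GFP/DsRed ratio bins, PSI computed from sequencing read fractions per bin weighted by bin number.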

The variants in the data set derive from B1. Put plainly: protein stability index of a GFP-peptide fusion (GPS, HEK-293T) (PSI 1-6); higher = more stable. The note with it: c terminus: native.
Take LPALFTDLYSQEVTAEEAREALP: the protein stability index came out at 2.46.
In the case of LPALFTDLYSQECTAEEAREALP it was 2.57; in that of LPALFTDLYSQEFTAEEAREALP, 2.69.
As to LPALFTDLYSQEPTAEEAREALP, the protein stability index turned out to be 3.87.
The figure for LPALFTDLYSQEITAEEAREKLP is 2.46; for LPALFTDLYSQEITAEEAREILP it is 2.4.
LPALFTDLYSQEITAEEAREQLP: the protein stability index was determined as 2.46.
The figure for LPALFTDLYSQEITAEEAREGLP is 2.81.
As to LPALFTDLYSQEITAEEAREVLP, the protein stability index was 2.16.
The figure for LPALFTDLYSQEITAEEARENLP is 2.6.
In the case of LPALFTDLYSQEITQEEAREALP it was 2.84; in that of LPALFTDLYSQEITHEEAREALP, 2.6; in that of HPALFTDLYSQEITAEEAREALP, 2.6.
In the case of VPALFTDLYSQEITAEEAREALP it was 2.59; in that of LPALFTDRYSQEITAEEAREALP, 2.22.
Turning to LPALFTDEYSQEITAEEAREALP, the protein stability index came to 4.59.
The figure for LPALFTDDYSQEITAEEAREALP is 5.11; for LPALFTDQYSQEITAEEAREALP it is 2.91; for LPALFTDNYSQEITAEEAREALP it is 3.46.
Take LPALFTDYYSQEITAEEAREALP: the protein stability index was 2.53.
In the case of LPALFTDAYSQEITAEEAREALP it was 3.14; in that of LPALFTDWYSQEITAEEAREALP, 3.27; in that of LPALFTDLYSQEITAEEAREALK, 4.82.
With LPALFTDLSSQEITAEEAREALP, the protein stability index was found to be 3.98.
For the variant LPALFTDLWSQEITAEEAREALP, the protein stability index was 2.65.
As for LPALFTDLNSQEITAEEAREALP, the protein stability index worked out at 5.01.
For the variant LPALFTDLGSQEITAEEAREALP, the protein stability index is 5.3.
In the case of LPALFTDLESQEITAEEAREALP it was 5.17; in that of LPALFTCLYSQEITAEEAREALP, 3.44.
The figure for LPALFTGLYSQEITAEEAREALP is 4.02; for LPALFTELYSQEITAEEAREALP it is 2.46.
The figure for LPALFTLLYSQEITAEEAREALP is 2.61; for LPALFTDLYSQEIAAEEAREALP it is 2.21.
Consider LPALFTDLYSQEISAEEAREALP, for which the protein stability index came to 2.67.
In the case of LPALFTDLYSQEILAEEAREALP it was 2.48.
The figure for LPALFTDLYSQEIDAEEAREALP is 2.55; for LPALFTDLYSQCITAEEAREALP it is 3.19.
In the case of LPALFTDLYSQPITAEEAREALP it was 3.77; in that of LPALFTDLYSQAITAEEAREALP, 3.56.
For LPALFTDLYSQKITAEEAREALP, the protein stability index turned out to be 2.92.
With LPALFTDLYSQNITAEEAREALP, the protein stability index was 3.79.
In the case of LPALFTDLYDQEITAEEAREALP it was 2.8; in that of LPALFTDLYAQEITAEEAREALP, 2.52.
With LPALFTDLYEQEITAEEAREALP, the protein stability index stood at 2.48.
The figure for LPALFTDLYRQEITAEEAREALP is 2.71; for LPALFTDLYSQEITAETAREALP it is 2.3.
In the case of LPALFTDLYSQEITAEMAREALP it was 2.22.
In the case of LPALFTDLYSQEITAEQAREALP it was 2.83.
As for LPALFTDLYSQEITAEKAREALP, the protein stability index stood at 2.18.
In the case of LPALFHDLYSQEITAEEAREALP it was 4.28.
The figure for LPALFWDLYSQEITAEEAREALP is 4.06.
As to LPALFGDLYSQEITAEEAREALP, the protein stability index stood at 4.09.
In the case of LPALYTDLYSQEITAEEAREALP it was 3.72.
The figure for LPALCTDLYSQEITAEEAREALP is 5.41.
In the case of LPALITDLYSQEITAEEAREALP it was 5.08; in that of LPALFTDLYSQEITAEEAREAWP, 2.67.
Take LPALFTDLYSQEITAEEAREASP: the protein stability index was found to be 3.59.
The figure for LPALFTDLYSQEITAEEAREAEP is 2.69.
The figure for LPALFTDLYSQEITAEEAREARP is 4.15; for LPALFTDLYSQEITAEEAREAQP it is 3.01; for LPALFTDLYSQEITAEEAREAKP it is 4.93.
As for LPALFTDLYSQEITAEEVREALP, the protein stability index is 2.71.
In the case of LPALFTDLYSQEITAEEWREALP it was 2.67; in that of LPALFTDLYSQEITAEEHREALP, 2.42; in that of LPALFTDLYSQEITAEENREALP, 2.75.
As to LPAYFTDLYSQEITAEEAREALP, the protein stability index worked out at 3.47.
The figure for LPAWFTDLYSQEITAEEAREALP is 3.98; for LPACFTDLYSQEITAEEAREALP it is 2.64.
Take LPADFTDLYSQEITAEEAREALP: the protein stability index came out at 4.87.
In the case of LPALFTDLYSQEITAFEAREALP, the protein stability index was determined as 2.89.
In the case of LPALFTDLYSQEITAYEAREALP it was 2.51; in that of LPALFTDLYSQEITADEAREALP, 2.75.
The figure for LPALFTDLYSQEITAVEAREALP is 2.48; for LPALFTDLYSQEITALEAREALP it is 2.73; for LPDLFTDLYSQEITAEEAREALP it is 4.1.
In the case of LPPLFTDLYSQEITAEEAREALP it was 2.62; in that of LPCLFTDLYSQEITAEEAREALP, 2.64; in that of LKALFTDLYSQEITAEEAREALP, 2.5.
On to LHALFTDLYSQEITAEEAREALP, for which the protein stability index stood at 2.52.
In the case of LSALFTDLYSQEITAEEAREALP it was 2.71; in that of LTALFTDLYSQEITAEEAREALP, 2.51.
The figure for LVALFTDLYSQEITAEEAREALP is 2.46; for LPALFTDLYSPEITAEEAREALP it is 3.82; for LPALFTDLYSEEITAEEAREALP it is 2.88.
Turning to LPALFTDLYSVEITAEEAREALP, the protein stability index worked out at 2.79.
The figure for LPALFTDLYSKEITAEEAREALP is 2.4; for LPALFTDLYSAEITAEEAREALP it is 2.7; for LPALFTDLYSDEITAEEAREALP it is 3.31.
The figure for LPALFTDLYSQEITAEEARYALP is 3.08.
In the case of LPALFTDLYSQEITAEEARFALP it was 2.43; in that of LPALFTDLYSQEITAEEARCALP, 2.38.
For LPALFTDLYSQEITAEEARLALP, the protein stability index was 2.51.
In the case of LPALFTDLYSQEITAEEARPALP it was 2.86.
On to LPALFTDLYSQEITAEEAIEALP, for which the protein stability index is 2.45.
As to LPALFTDLYSQEITAEEAMEALP, the protein stability index stood at 2.59.
LPALFTDLYSQEITAEEAWEALP: the protein stability index turned out to be 2.56.
With LPALFTDLYSQEITAEEAEEALP, the protein stability index amounted to 2.81.
